Target: the molecule itself
Assay: AUC; sedimentation velocity, 20 °C, Rayleigh interference optics, c(s) analysis converted into c(M); AtDSEL at 3.0, 1.5 and 0.8 mg/mL; CaPLA1 at 1.1, 0.5 and 0.3 mg/mL

Protein | stoichiometry N
Arabidopsis thaliana DAD1-like seedling establishment-related lipase (enzyme, UniProt O49523 1-419, looked up, AtDSEL, phospholipase A1 of Arabidopsis thaliana, full length, UniProt O49523; A non-native Gly from the TEV site (ENLYFQG) is left at the N-terminus after cleavage; Homodimer by crystal structure and AUC; also called AtDSEL; source: E. coli BL21 (DE3), purified (Ni-NTA, TEV cleavage, Ni-NTA, SEC); not shown: His6, N-terminal, cleaved) MKRKKKEEEEEKLIVTREFAKRWRDLSGQNHWKGMLQPLDQDLREYIIHYGEMAQAGYDTFNINTESQFAGASIYSRKDFFAKVGLEIAHPYTKYKVTKFIYATSDIHVPESFLLFPISREGWSKESNWMGYVAVTDDQGTALLGRRDIVVSWRGSVQPLEWVEDFEFGLVNAIKIFGERNDQVQIHQGWYSIYMSQDERSPFTKTNARDQVLREVGRLLEKYKDEEVSITICGHSLGAALATLSATDIVANGYNRPKSRPDKSCPVTAFVFASPRVGDSDFRKLFSGLEDIRVLRTRNLPDVIPIYPPIGYSEVGDEFPIDTRKSPYMKSPGNLATFHCLEGYLHGVAGTQGTNKADLFRLDVERAIGLVNKSVDGLKDECMVPGKWRVLKNKGMAQQDDGSWELVDHEIDDNEDLDF | 2
Capsicum annuum phospholipase A1 homolog (enzyme, UniProt A5YW95 1-397, looked up, CaPLA1, phospholipase A1 of hot pepper (Capsicum annuum), full length, UniProt A5YW95; A non-native Gly from the TEV site (ENLYFQG) is left at the N-terminus after cleavage; Homodimer by crystal structure and AUC; also called CaPLA1; source: E. coli BL21 (DE3), purified (Ni-NTA, TEV cleavage, Ni-NTA, SEC); not shown: His6, N-terminal, cleaved) MGSMAEKWEELSGKNNWEGLLNPLDLDLRKYIIQYGELAQATYDTFISERASKYAGASRYSMENFFTKVGLDPSKYHVTKFFYGTSSIPLPDAFMTRSLSREAWSKESNFMGYIAVATDEGKVALGRRDIVINWRGTLQVLEWVNDLQFLLVPAPKVFGDGGLLPLFHPLVHHGFHNIYTTENPRSQFNKTCVRDQVMEEVKRLVEEYKNEEVSITVTGHSLGASLATLNAVDIAFNGINKSSNGKEFPVTAFVFASPKVGDLNFHKAFSKLKHLHILRIHNLLDIVPKYPPVGYFDVGQELMIDTTKSPYVKPPGEVVSWHLLEPYLHGIAGTQGIGMTAGFKLEVNRDISLVNKQWMILKDEYCIPPLWWSEKHKGMVQQQDGSWLLQDRDDYEF | 2

— PMC9000616 (Molecules, 2022)
